# Assay results: the supplement of paper PMC10201428
# ± gives the standard deviation of the averaged measurements.
# Tests used:
# [1] = system: VchCAST RNA-guided transposition machinery (E. coli BL21(DE3) host, lacZ target); assay: relative integration efficiency (T-LR orientation) vs wild-type transposon end (log2 (normalized fold change)); transposon end mutated: right end (5 bp flank + 75 bp right end); higher = more efficient transposition
# Procedure, shortened: (§1)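 In E. coli BL21(DE3), a T7-driven effector plasmid was paired with a pUC57 mini-transposon donor containing 1549 left-end or 1849 right-end barcoded transposon variants. Cells grew on plates with 0.1 mM IPTG at 37°C for 18 h. Relative integration efficiency was derived from Illumina reads of genomic integration junctions against input plasmids, as a log-transformed output/input barcode fold change normalised to reference barcodes.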
# [2] = system: VchCAST RNA-guided transposition machinery (E. coli BL21(DE3) host, lacZ target); assay: relative integration efficiency (T-RL orientation) vs wild-type transposon end (log2 (normalized fold change)); transposon end mutated: right end (5 bp flank + 75 bp right end); higher = more efficient transposition
# Procedure, shortened: as §1
Sequence,relative integration efficiency (log2) [1],relative integration efficiency (log2) [2]
ACATTTGTTGATACAACCATAAAATGATAATTACTCTGATCATAGTCAGACCACACCCATAAATTGATAATTATCACACCCATAAATTGATATTGCACATTGCTACGACCCGTATTCGCACCGACAC,-2.36 ± 0.32,-4.6 ± 0.057
ACATTTGTTGATACAACCATAAAATGATAATTACTCTGATCATAGTCAGACCACACCCATAAATTGATAATTATCAGTGGGTATTTAACTATAACGACATTGCTACGACCCGTATTCGCACCGACAC,2.27 ± 0.15,-0.22 ± 0.33
ACATTTGTTGATACAACCATAAAATGATAATTACTCTGATCATAGTCAGCACCCATAAATTGATAATTATCACACCCATAAATTGATATTGCACCAACATTGCTACGACCCGTATTCGCACCGACAC,-0.456 ± 0.19,-4.51 ± 0.36
ACATTTGTTGATACAACCATAAAATGATAATTACTCTGATCATAGTCAGCACCCATAAATTGATAATTATCAGTGGGTATTTAACTATAACGACCAACATTGCTACGACCCGTATTCGCACCGACAC,0.537 ± 0.24,-2.61 ± 0.47
ACATTTGTTGATACAACCATAAAATGATAATTACTCTGATCATCACCCATAAATTGATAATTATCACACCCATAAATTGATATTGCAGTCAGACCAACATTGCTACGACCCGTATTCGCACCGACAC,-2.15 ± 0.28,-4.28 ± 0.15
ACATTTGTTGATACAACCATAAAATGATAATTACTCTGATCATCACCCATAAATTGATAATTATCAGTGGGTATTTAACTATAACGAGTCAGACCAACATTGCTACGACCCGTATTCGCACCGACAC,-0.42 ± 0.11,-3.53 ± 0.084
ACATTTGTTGATACAACCATAAAATGATAATTACTCTGCACCCATAAATTGATAATTATCACACCCATAAATTGATATTGCATCATAGTCAGACCAACATTGCTACGACCCGTATTCGCACCGACAC,0.55 ± 0.061,-3.62 ± 0.15
ACATTTGTTGATACAACCATAAAATGATAATTACTCTGCACCCATAAATTGATAATTATCAGTGGGTATTTAACTATAACGATCATAGTCAGACCAACATTGCTACGACCCGTATTCGCACCGACAC,0.872 ± 0.43,-2.05 ± 0.21
ACATTTGTTGATACAACCATAAAATGATAATTACTGCCATAAATTGATAATTATCACACCCATAAATTGATATTGCCTCTGATCATAGTCAGACCAACATTGCTACGACCCGTATTCGCACCGACAC,-0.602 ± 0.32,-0.109 ± 0.19
ACATTTGTTGATACAACCATAAAATGATAATTACTGGGATAAATTGATAATTATCACACCCATAAATTGATATTGCCTCTGATCATAGTCAGACCAACATTGCTACGACCCGTATTCGCACCGACAC,-0.993 ± 0.59,-0.454 ± 0.059
ACATTTGTTGATACAACCATAAAATGATAATTAGAAACCATAATTGATAATTATCACACCCATAAATTGATATTGCCTCTGATCATAGTCAGACCAACATTGCTACGACCCGTATTCGCACCGACAC,-2.38 ± 0.52,-3.59 ± 0.08
ACATTTGTTGATACAACCATAAAATGATAATTAGAAACCATACGCTGAAATAATCACACCCATAAATTGATATTGCCTCTGATCATAGTCAGACCAACATTGCTACGACCCGTATTCGCACCGACAC,-1.54 ± 0.65,-3.5 ± 0.081
ACATTTGTTGATACAACCATAAAATGATAATTAGACCCCATAATTGATAATTATCACACCCATAAATTGATATTGCCTCTGATCATAGTCAGACCAACATTGCTACGACCCGTATTCGCACCGACAC,-3.27 ± 0.54,-3.4826 ± 0.0031
ACATTTGTTGATACAACCATAAAATGATAATTAGTCCCATAAATTGATAATTATCACACCCATAAATTGATATTGCCTCTGATCATAGTCAGACCAACATTGCTACGACCCGTATTCGCACCGACAC,-0.924 ± 0.37,-0.921 ± 0.049
ACATTTGTTGATACAACCATAAAATGATAATTAGTGGCATAAATTGATAATTATCACACCCATAAATTGATATTGCCTCTGATCATAGTCAGACCAACATTGCTACGACCCGTATTCGCACCGACAC,-1.87 ± 0.24,-1.91 ± 0.16
ACATTTGTTGATACAACCATAAAATGATAATTAGTGGGTATTTAACTATTAATTCACACCCATAAATTGATATTGCCTCTGATCATAGTCAGACCAACATTGCTACGACCCGTATTCGCACCGACAC,-3.02 ± 0.35,-3.76 ± 0.071
ACATTTGTTGATACAACCATAAAATGATAATTAGTGGGTATTTAACTATTAATTCAGTGGGTATTTAACTATAACGCTCTGATCATAGTCAGACCAACATTGCTACGACCCGTATTCGCACCGACAC,1.17 ± 0.31,-2.37 ± 0.12
ACATTTGTTGATACAACCATAAAATGATAATTATAATTATCATTTTATGGTTGTCACAACCATAAAATGATAATTACTCTGATCATAGTCAGACCAACATTGCTACGACCCGTATTCGCACCGACAC,-1.19 ± 0.18,-3.2 ± 0.33
ACATTTGTTGATACAACCATAAAATGATAATTATAATTATCATTTTATGGTTGTCATAATTATCATTTTATGGTTGCTCTGATCATAGTCAGACCAACATTGCTACGACCCGTATTCGCACCGACAC,0.158 ± 0.76,-2.61 ± 0.67
ACATTTGTTGATACAACCATAAAATGATAATTCAACCCATAAATTGATAATTATCACACCCATAAATTGATATTGCCTCTGATCATAGTCAGACCAACATTGCTACGACCCGTATTCGCACCGACAC,0.119 ± 0.3,0.0959 ± 0.067
ACATTTGTTGATACAACCATAAAATGATAATTCACAAACGCCCGGTCGCCGGCGACACAAACGCCCGGTCGCGGTAAGAGGATCATAGTCAGACCAACATTGCTACGACCCGTATTCGCACCGACAC,1.4 ± 0.079,-1.9 ± 0.14
ACATTTGTTGATACAACCATAAAATGATAATTCACACCATAAATTGATAATTATCACACCCATAAATTGATATTGCCTCTGATCATAGTCAGACCAACATTGCTACGACCCGTATTCGCACCGACAC,-0.473 ± 0.22,-0.218 ± 0.014
ACATTTGTTGATACAACCATAAAATGATAATTCACCCATAAATTGATAATTATCACACCCACATTTAACTATAACGCTCTGATCATAGTCAGACCAACATTGCTACGACCCGTATTCGCACCGACAC,1.31 ± 0.058,-2.03 ± 0.22
ACATTTGTTGATACAACCATAAAATGATAATTCACCCATAAATTGATAATTATCACACCCATAAATTGATATTGCCTCTGATCATAGTCAGACCAACATTGCTACGACCCGTATTCGCACCGACACT,-0.727 ± 0.39,-1.27 ± 0.026
ACATTTGTTGATACAACCATAAAATGATAATTCACCCATAAATTGATAATTATCACACCCCAATTTAACTATAACGCTCTGATCATAGTCAGACCAACATTGCTACGACCCGTATTCGCACCGACAC,1.7 ± 0.066,-1.88 ± 0.17
